The test has as its target BG505 SOSIP trimer (HIV-1 (BG505)) (UniProt Q2N0S6). Nature of the test: SEC-MALS. (In general: Size exclusion chromatography separates by hydrodynamic size, large species first.)

What is called stoichiometry N is the number of molecules, sites or subunits per partner or assembly. “BG505 SOSIP trimer (from UniProt Q2N0S6 1-860; Q2N0S6 1-860) (complex)” came in with a stoichiometry N of 3.

The values above are taken from article PMC6224390.
